# Biological target: Cul3 (Cullin3) (UniProt Q9JLV5)
# Experiment: co-IP
# Details: reference: PHLPP2 wild type; sites S1119,S1210
substance,measurement,value
PHLPP2 (from UniProt Q6ZVD8) PHLPP2-2A (S1119A/S1210A),binding against the reference,weaker

# Reference: PMC5705280
